Data: the supplement of paper PMC11246515
± gives the standard deviation of the averaged measurements.

Experiment: total protein half-life in vivo (active degradation + dilution); higher = more stable protein
[1] = E. coli NCM3722 delta-clpP delta-lon delta-hslV, growth: N-lim chemostat, doubling time 6 h
[2] = E. coli NCM3722 delta-clpP, growth: N-lim chemostat, doubling time 6 h
[3] = E. coli NCM3722 delta-hslV, growth: N-lim chemostat, doubling time 6 h
[4] = E. coli NCM3722 delta-lon, growth: N-lim chemostat, doubling time 6 h
[5] = E. coli NCM3722 delta-smpB, growth: N-lim chemostat, doubling time 6 h
[6] = wild type E. coli NCM3722, growth: C-lim chemostat, doubling time 3 h
[7] = wild type E. coli NCM3722, growth: C-lim chemostat, doubling time 6 h
[8] = wild type E. coli NCM3722, growth: C-lim chemostat, doubling time 12 h
[9] = wild type E. coli NCM3722, growth: N-lim chemostat, doubling time 6 h
[10] = wild type E. coli NCM3722, growth: N-lim chemostat, doubling time 12 h
[11] = wild type E. coli NCM3722, growth: P-lim chemostat, doubling time 6 h
[12] = wild type E. coli NCM3722, growth: P-lim chemostat, doubling time 12 h

| Sequence | total protein half-life in vivo [1] [h] | total protein half-life in vivo [2] [h] | total protein half-life in vivo [3] [h] | total protein half-life in vivo [4] [h] | total protein half-life in vivo [5] [h] | total protein half-life in vivo [6] [h] | total protein half-life in vivo [7] [h] | total protein half-life in vivo [8] [h] | total protein half-life in vivo [9] [h] | total protein half-life in vivo [10] [h] | total protein half-life in vivo [11] [h] | total protein half-life in vivo [12] [h] |
| --- | --- | --- | --- | --- | --- | --- | --- | --- | --- | --- | --- | --- |
| MKIRSQVGMVLNLDKCIGCHTCSVTCKNVWTGREGMEYAWFNNVETKPGIGYPKNWEDQEEWQGGWVRDVNGKIRPRLGNKMGVITKIFANPVVPQIDDYYEPFTFDYEHLHSAPEGKHIPTARPRSLIDGKRMDKVIWGPNWEELLGGEFEKRARDRNFEAMQKEMYGQFENTFMMYLPRLCEHCLNPSCVATCPSGAIYKREEDGIVLIDQDKCRGWRLCISGCPYKKIYFNWKSGKSEKCIFCYPRIESGQPTVCSETCVGRIRYLGVLLYDADRIEEAASTEREVDLYERQCEVFLDPHDPSVIEEALKQGIPQNVIDAAQRSPVYKMAMDWKLALPLHPEYRTLPMVWYVPPLSPIQSYADAGGLPKSEGVLPAIESLRIPVQYLANMLSAGDTGPVLRALKRMMAMRHYMRSQTVEGVTDTRAIDEVGLSVAQVEEMYRYLAIANYEDRFVIPTSHREMAGDAFAERNGCGFTFGDGCHGSDSKFNLFNSSRIDAINITEVRDKAEGE | 6.49 ± 0.73 | 5.74 ± 0.49 | 6.23 ± 0.64 | 6.34 ± 1.3 | 5.77 ± 1.2 | 3.14 ± 0.27 | 5.54 ± 0.12 | 10.3 ± 0.17 | 5.94 ± 0.089 | 12.5 ± 0.46 | 5.68 ± 0.26 | 11.62 ± 0.051 |
| MKIRSQVGMVLNLDKCIGCHTCSVTCKNVWTSREGVEYAWFNNVETKPGQGFPTDWENQEKYKGGWIRKINGKLQPRMGNRAMLLGKIFANPHLPGIDDYYEPFDFDYQNLHTAPEGSKSQPIARPRSLITGERMAKIEKGPNWEDDLGGEFDKLAKDKNFDNIQKAMYSQFENTFMMYLPRLCEHCLNPACVATCPSGAIYKREEDGIVLIDQDKCRGWRMCITGCPYKKIYFNWKSGKSEKCIFCYPRIEAGQPTVCSETCVGRIRYLGVLLYDADAIERAASTENEKDLYQRQLDVFLDPNDPKVIEQAIKDGIPLSVIEAAQQSPVYKMAMEWKLALPLHPEYRTLPMVWYVPPLSPIQSAADAGELGSNGILPDVESLRIPVQYLANLLTAGDTKPVLRALKRMLAMRHYKRAETVDGKVDTRALEEVGLTEAQAQEMYRYLAIANYEDRFVVPSSHRELAREAFPEKNGCGFTFGDGCHGSDTKFNLFNSRRIDAIDVTSKTEPHP | 5.82 ± 0.15 | 5.37 ± 0.84 | 5.9 ± 0.44 | 5.52 ± 0.8 | 5.81 ± 0.086 | – | 5.809 ± 0.058 | 12.8 | 5.29 | 11.3 ± 0.39 | 6 ± 0.39 | 10.8 ± 2.4 |
| MKISDGNWLIQPGLNLIHPLQVFEVEQQDNEMVVYAAPRDVRERTWQLDTPLFTLRFFSPQEGIVGVRIEHFQGALNNGPHYPLNILQDVKVTIENTERYAEFKSGNLSARVSKGEFWSLDFLRNGERITGSQVKNNGYVQDTNNQRNYMFERLDLGVGETVYGLGERFTALVRNGQTVETWNRDGGTSTEQAYKNIPFYMTNRGYGVLVNHPQCVSFEVGSEKVSKVQFSVESEYLEYFVIDGPTPKAVLDRYTRFTGRPALPPAWSFGLWLTTSFTTNYDEATVNSFIDGMAERNLPLHVFHFDCFWMKAFQWCDFEWDPLTFPDPEGMIRRLKAKGLKICVWINPYIGQKSPVFKELQEKGYLLKRPDGSLWQWDKWQPGLAIYDFTNPDACKWYADKLKGLVAMGVDCFKTDFGERIPTDVQWFDGSDPQKMHNHYAYIYNELVWNVLKDTVGEEEAVLFARSASVGAQKFPVHWGGDCYANYESMAESLRGGLSIGLSGFGFWSHDIGGFENTAPAHVYKRWCAFGLLSSHSRLHGSKSYRVPWAYDDESCDVVRFFTQLKCRMMPYLYREAARANARGTPMMRAMMMEFPDDPACDYLDRQYMLGDNVMVAPVFTEAGDVQFYLPEGRWTHLWHNDELDGSRWHKQQHGFLSLPVYVRDNTLLALGNNDQRPDYVWHEGTAFHLFNLQDGHEAVCEVPAADGSVIFTLKAARTGNTITVTGAGEAKNWTLCLRNVVKVNGLQDGSQAESEQGLVVKPQGNALTITL | 5.8 | 5.9 ± 0.59 | 5.652 ± 0.053 | – | 5.11 ± 0.41 | 3.394 ± 0.019 | 6.93 ± 0.64 | 13 ± 0.71 | 6.27 | 12.7 ± 0.22 | – | 11.5 ± 2.9 |
| MKISPSLMCMDLLKFKEQIEFIDSHADYFHIDIMDGHFVPNLTLSPFFVSQVKKLATKPLDCHLMVTRPQDYIAQLARAGADFITLHPETINGQAFRLIDEIRRHDMKVGLILNPETPVEAMKYYIHKADKITVMTVDPGFAGQPFIPEMLDKLAELKAWREREGLEYEIEVDGSCNQATYEKLMAAGADVFIVGTSGLFNHAENIDEAWRIMTAQILAAKSEVQPHAKTA | – | – | – | – | – | 0.597 | – | – | – | – | – | – |
| MKITLLVTLLFGLVFLTTVGAAERTLTPQQQRMTSCNQQATAQALKGDARKTYMSDCLKNSKSAPGEKSLTPQQQKMRECNNQATQQSLKGDDRNKFMSACLKKAA [P0AFM4] | 6.55 | 5.82 ± 1.1 | – | – | – | – | – | 6.86 ± 1.4 | – | – | 5.5 ± 1.8 | 12.8 ± 2.9 |
| MKITLSKRIGLLAILLPCALALSTTVHAETNKLVIESGDSAQSRQHAAMEKEQWNDTRNLRQKVNKRTEKEWDKADAAFDNRDKCEQSANINAYWEPNTLRCLDRRTGRVITP | 6.01 ± 0.36 | – | 4.407 ± 0.012 | 5.55 ± 1.8 | 4.06 ± 0.71 | – | 5.07 ± 0.96 | 7.11 ± 3.5 | 4.93 ± 0.28 | 11 ± 1.8 | 5.78 ± 0.18 | 12.4 ± 0.79 |
